# B1: Sterol regulatory element-binding protein cleavage-activating protein (Cricetulus griseus (Chinese hamster)), P97260 (parent)
# chain: MTLTERLREKISQAFYNHGLLCASYPIPIILFTGLCILACCYPLLKLPLPGTGPVEFSTPVKDYSPPPVDSDHKQGEPSEQPEWYVGAPVAYIQQIFVKSSVSPWHKNLLAVDVFRLPLSRAFQLVEEIRNHVLRDSSGTKSLEEVCLQVTDLLPGLRKLRNLLPEHGCLLLSPGNFWQNDWERFHADPDIIGTIHQHEPKTLQTSATLKDLLFGVPGKYSGVSLYTRKRTVSYTITLVFQRYHAKFLSSLRARLMLLHPSPNCSLRAENLVHVHFKEEIGIAELIPLVTTYIILFAYIYFSTRKIDMVKSKWGLALAAVVTVLSSLLMSVGLCTLFGLTPTLNGGEIFPYLVVVIGLENVLVLTKSVVSTPVDLEVKLRIAQGLSSESWSIMKNVATELGIILIGYFTLVPAIQEFCLFAVVGLVSDFFLQMFFFTTVLSIDIRRMELADLNKRLPPESCLPSAKPVGRPARYERQLAVRPAMPHTITLQPSSFRNLRLPKRLRVIYFLARTRLAQRLIMAGTVVWIGILVYTDPAGLRTYLAAQVTEQSPLGEGSLGPMPVPSGVLPASRPDPAFSIFPPDAPKLPENQTVPGELPEHAAPAEGVHDSRAPEVTWGPEDEELWRRLSFRHWPTLFNYYNITLAKRYISLLPVIPVTLRLNPQEALEGRQPQDGRSAWAPPESLPAGLWEAGPKGPGGTQAHGDITLYKVAALGLAAGIVLVLLLLCLYRVLCPRNYGQPGGGAGRRRRGELPCDDYGYAPPETEIVPLVLRGHLMDIECLASDGMLLVSCCLAGQVCVWDAQTGDCLTRIPRPGSRRDSCGGGAFETQENWERLSDGGKTSPEEPGESPPLRHRPRGPPQPALFGDQPDLTCLIDTNFSVQLPPEPTQPEPRHRAGCGRARDSGYDFSRLVQRVYQEEGLAAVRMPALRPPSPGSPLPQASQEDGAAPEKGSPPLAWAPSTAGSIWSLELQGNLIVVGRSSGRLEVWDAIEGVLCCSNDEVSSGITALVFLDRRIVAARLNGSLDFFSLETHTSLSPLQFRGTPGRGSSPSSSVYSSSNTVACHLTHTVPCAHQKPITALRAAAGRLVTGSQDHTLRVFRLEDSCCLFTLQGHSGAITTVYIDQTMVLASGGQDGAICLWDVLTGSRVSHTFAHRGDVTSLTCTTSCVISSGLDDLINIWDRSTGIKLYSIQQDLGCGASLGVISDNLLVTGGQGCVSFWDLNYGDLLQTVYLGKNSEAQPARQILVLDNAAIVCNFGSELSLVYVPSVLEKLD
# partner: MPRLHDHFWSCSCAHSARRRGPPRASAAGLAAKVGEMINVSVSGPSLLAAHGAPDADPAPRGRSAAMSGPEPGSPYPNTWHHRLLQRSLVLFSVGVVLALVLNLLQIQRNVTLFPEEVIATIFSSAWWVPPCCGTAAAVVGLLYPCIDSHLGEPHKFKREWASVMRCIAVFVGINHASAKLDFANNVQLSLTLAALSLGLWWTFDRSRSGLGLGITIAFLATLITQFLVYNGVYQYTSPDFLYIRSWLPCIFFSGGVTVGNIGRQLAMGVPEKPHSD
# Variants of: B1
# Conditions: with insi1_human INSIG1, O15503
row,Variant,effect of a mutation on the interaction
1,N263E;N590E;N641E,increasing interaction strength
